Experimental data from article PMC9499004, “Impact of G-Quadruplex Structures on Methylation of Model Substrates by DNA Methyltransferase Dnmt3a”.

Experiments:
[1] = target: T1, AIR-Dnmt3a2 (autoinhibition removed) (murine, UniProt O88508-2 1-689, Y303A;Y305A); experiment: EMSA; 1 uM protein, 100 uM AdoHcy; no difference from 76Tf/95Bf-G4; 20 mM HEPES-NaOH pH 7.5, 100 mM KCl, 1 mM EDTA, 1 mM DTT, 100 uM AdoHcy, 25 C (EMSA: + 6% glycerol, 30 min, 60 nM DNA, gel at 4 C; FP: 10 nM DNA)
[2] = target: M.SssI (prokaryotic (species ), UniProt P15840 1-386); experiment: EMSA; 100 uM AdoHcy; 20 mM HEPES-NaOH pH 7.5, 100 mM KCl, 1 mM EDTA, 1 mM DTT, 100 uM AdoHcy, 25 C (EMSA: + 6% glycerol, 30 min, 60 nM DNA, gel at 4 C; FP: 10 nM DNA); conditions: protein: recombinant; label: FAM; 30 bp duplex
Sequence of M.SssI (P15840 whole entry): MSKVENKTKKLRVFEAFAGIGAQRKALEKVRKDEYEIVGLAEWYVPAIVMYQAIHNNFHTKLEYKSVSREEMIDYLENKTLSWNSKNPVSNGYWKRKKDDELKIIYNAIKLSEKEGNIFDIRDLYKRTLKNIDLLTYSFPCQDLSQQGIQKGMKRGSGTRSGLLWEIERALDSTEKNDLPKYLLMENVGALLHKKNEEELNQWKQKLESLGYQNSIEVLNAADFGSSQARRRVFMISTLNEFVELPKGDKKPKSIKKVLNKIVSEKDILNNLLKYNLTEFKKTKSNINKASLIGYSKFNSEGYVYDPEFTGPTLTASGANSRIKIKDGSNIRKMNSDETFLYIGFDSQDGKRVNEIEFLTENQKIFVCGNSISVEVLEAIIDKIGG

[3] = target: T1, AIR-Dnmt3a2 (autoinhibition removed); experiment: EMSA; 1 uM protein, 100 uM AdoHcy; 20 mM HEPES-NaOH pH 7.5, 100 mM KCl, 1 mM EDTA, 1 mM DTT, 100 uM AdoHcy, 25 C (EMSA: + 6% glycerol, 30 min, 60 nM DNA, gel at 4 C; FP: 10 nM DNA)
[4] = target: Dnmt3a-CD (murine, UniProt O88508 608-908); experiment: as above; conditions: protein: recombinant; tags: N-terminal 6xHis; chain copies: 2; label: fluorophore (FAM or TAMRA); no G4

B1: 76Tf/76Bf (dsDNA)
DNA 1: TCCTTTCGCGCTTGGATCCTATGAGCGTTACTCGAGCATATGGCTCAGCTGCCAGGCACCAGTGTCAGCGTCCTAT
DNA 2: ATAGGACGCTGACACTGGTGCTTGGCAGCTGAGCCATATGCTCGAGTAACGCTCATAGGATCCAAGCGCGAAAGGA
binding result [1]: binds

B2: 30Tf/30Bf (dsDNA)
DNA 1: CTGAATACTACTTGCGCTCTCTAACCTGAT
DNA 2: ATCAGGTTAGAGAGCGCAAGTAGTATTCAG
binding result [2]: binds

B3: 22(GAGT)4f (ssDNA)
DNA: AGGGAGTGAGTGAGTGAGTATA
binding signal [3]: ~4 fold weaker than 19G4f
binding signal [4]: ~4 fold weaker than 19G4f
